Data set [1] concerns the target T1, core RNA polymerase (wild type) (Escherichia coli, UniProt P0A7Z4;P0A8V2;P0A8T7 1-329;1-1342;1-1407). The experiment in a line: KMnO4 footprinting.
The target of data set [2] is T2, core RNA polymerase (wild type);sigma70 (Escherichia coli;Escherichia coli, UniProt P0A7Z4;P0A8V2;P0A8T7;P00579 1-329;1-1342;1-1407;1-613, |). The experiment in a line: KMnO4 footprinting.
Data set [3] addresses T2, core RNA polymerase (wild type);sigma70. In words: ExoIII footprinting.
Data set [4] has as its target T1, core RNA polymerase (wild type). In words: ExoIII footprinting.
In data set [5] the target is core RNA polymerase (wild type);sigma70 fragment 1-448 (Escherichia coli;Escherichia coli, UniProt P0A7Z4;P0A8V2;P0A8T7;P00579 1-329;1-1342;1-1407;1-448, |). In words: ExoIII footprinting.

T1 sequence (P0A7Z4 whole entry, chain 1 of 2): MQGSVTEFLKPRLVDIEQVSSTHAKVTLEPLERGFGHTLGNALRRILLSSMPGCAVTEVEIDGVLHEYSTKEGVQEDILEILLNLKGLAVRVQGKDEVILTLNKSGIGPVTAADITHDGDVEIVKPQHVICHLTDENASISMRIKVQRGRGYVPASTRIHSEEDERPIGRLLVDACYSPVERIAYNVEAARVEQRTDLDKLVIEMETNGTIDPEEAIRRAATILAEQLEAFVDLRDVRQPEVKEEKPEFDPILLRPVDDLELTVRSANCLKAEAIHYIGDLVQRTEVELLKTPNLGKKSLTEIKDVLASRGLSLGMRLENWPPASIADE
T1 sequence (P0A8V2 whole entry, chain 2 of 2): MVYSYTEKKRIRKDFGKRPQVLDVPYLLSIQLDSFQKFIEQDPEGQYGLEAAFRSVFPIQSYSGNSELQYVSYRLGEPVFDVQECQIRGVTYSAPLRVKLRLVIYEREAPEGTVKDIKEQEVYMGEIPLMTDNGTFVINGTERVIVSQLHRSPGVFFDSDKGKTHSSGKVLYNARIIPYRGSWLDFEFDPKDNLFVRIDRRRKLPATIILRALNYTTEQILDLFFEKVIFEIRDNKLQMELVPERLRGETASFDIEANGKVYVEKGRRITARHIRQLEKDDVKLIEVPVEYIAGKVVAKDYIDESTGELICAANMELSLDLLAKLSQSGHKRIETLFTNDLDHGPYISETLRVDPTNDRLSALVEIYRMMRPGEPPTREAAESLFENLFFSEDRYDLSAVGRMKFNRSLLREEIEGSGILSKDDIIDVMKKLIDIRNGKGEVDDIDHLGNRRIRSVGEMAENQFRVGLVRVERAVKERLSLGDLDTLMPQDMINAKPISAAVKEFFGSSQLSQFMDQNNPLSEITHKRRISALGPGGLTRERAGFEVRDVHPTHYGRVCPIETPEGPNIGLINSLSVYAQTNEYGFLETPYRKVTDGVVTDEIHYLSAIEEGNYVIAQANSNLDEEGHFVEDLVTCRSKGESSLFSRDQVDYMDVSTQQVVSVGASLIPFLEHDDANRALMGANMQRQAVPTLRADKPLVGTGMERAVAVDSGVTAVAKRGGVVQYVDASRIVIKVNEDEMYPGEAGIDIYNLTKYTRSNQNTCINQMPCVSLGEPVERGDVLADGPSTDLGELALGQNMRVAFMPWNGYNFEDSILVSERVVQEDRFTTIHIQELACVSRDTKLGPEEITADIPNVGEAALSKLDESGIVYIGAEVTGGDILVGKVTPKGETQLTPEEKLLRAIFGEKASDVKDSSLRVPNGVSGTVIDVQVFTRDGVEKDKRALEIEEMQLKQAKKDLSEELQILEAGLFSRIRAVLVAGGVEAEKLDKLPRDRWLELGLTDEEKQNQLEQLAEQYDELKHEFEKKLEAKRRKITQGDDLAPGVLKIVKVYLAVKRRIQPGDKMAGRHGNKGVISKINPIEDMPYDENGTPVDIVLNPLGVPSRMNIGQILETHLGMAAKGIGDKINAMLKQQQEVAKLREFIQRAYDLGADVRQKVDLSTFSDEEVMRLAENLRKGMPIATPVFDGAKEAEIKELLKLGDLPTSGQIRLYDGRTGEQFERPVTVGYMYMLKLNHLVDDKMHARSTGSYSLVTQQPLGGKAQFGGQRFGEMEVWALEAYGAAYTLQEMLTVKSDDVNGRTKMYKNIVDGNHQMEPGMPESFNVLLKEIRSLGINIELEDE
T2 sequence (P0A7Z4 whole entry, chain 1 of 3): as the sequence (P0A7Z4 whole entry, chain 1 of 2) above
T2 sequence (P0A8V2 whole entry, chain 2 of 3): as the sequence (P0A8V2 whole entry, chain 2 of 2) above
T2 sequence (P00579 whole entry, chain 4 of 3): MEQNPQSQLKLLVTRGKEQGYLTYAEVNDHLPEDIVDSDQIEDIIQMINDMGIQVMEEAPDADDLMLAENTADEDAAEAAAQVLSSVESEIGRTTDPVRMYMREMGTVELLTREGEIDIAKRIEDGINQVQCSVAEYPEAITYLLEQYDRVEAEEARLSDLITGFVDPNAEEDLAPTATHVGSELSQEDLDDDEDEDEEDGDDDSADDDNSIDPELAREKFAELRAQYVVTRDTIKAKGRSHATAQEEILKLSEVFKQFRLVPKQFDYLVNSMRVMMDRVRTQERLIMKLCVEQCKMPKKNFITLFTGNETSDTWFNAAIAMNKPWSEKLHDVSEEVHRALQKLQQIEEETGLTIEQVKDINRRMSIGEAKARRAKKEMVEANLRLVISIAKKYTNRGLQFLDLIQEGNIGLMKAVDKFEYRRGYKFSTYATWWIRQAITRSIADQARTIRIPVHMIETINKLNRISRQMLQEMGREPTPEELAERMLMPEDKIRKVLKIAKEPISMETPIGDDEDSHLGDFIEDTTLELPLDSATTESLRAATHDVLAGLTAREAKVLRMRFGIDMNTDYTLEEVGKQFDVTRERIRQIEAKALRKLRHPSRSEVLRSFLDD

B1: Cons scaffold, 20-mer RNA (mixed)
DNA 1: AGGATACTTAGTGCTATAATGAGCGGATCGCATGTTCACACAGGAAACAGCTGATTGCCC
DNA 2: GGGCAATCAGCTGTTTCCTGTGTGAACATGCGATCCGCTCATTATAGCACTAAGTATCCT
RNA: AUCACGAUAAAUGAGCGGAU
In the case of B1, the binding result in data set [1] and in data set [2] was “binds” each time.

B2: Cons_up scaffold, 20-mer RNA (mixed)
DNA 1: CAGTGAATTCAGGATACTTAGTGCTATAATGAGCGGATCGCATGTTCACACAGGAAACAGCTGATTGCCC
DNA 2: GGGCAATCAGCTGTTTCCTGTGTGAACATGCGATCCGCTCATTATAGCACTAAGTATCCTGAATTCACTG
RNA: AUCACGAUAAAUGAGCGGAU
As to B2, the binding result in data set [3], in data set [4] and in data set [5] was “binds” throughout.
